{"source": "patent US20250051446A1", "about": "(OSE IMMUNOTHERAPEUTICS, published 2025)", "binders": {"B1": {"name": "FR104, humanized pegylated monovalent anti-CD28 Fab' antibody fragment (Fab, V domains shown)", "VH": "QVQLQQSGAELKKPGASVKVSCKASGYTFTEYIIHWIKLRSGQGLEWIGWFYPGSNDIQYNAQFKGKATLTADKSSSTVYMELTGLTPEDSAVYFCARRDDFSGYDALPYWGQGTLVTVSA", "VL": "DIQMTQSPSSLSASVGDRVTITCKTNENIYSNLAWYQQKDGKSPQLLIYAATHLVEGVPSRFSGSGSGTQYSLTISSLQPEDFGNYYCQHFWGTPCTFGGGTKLEIKR", "modifications": "pegylated at its C-terminus: bi-branched 2x20 kDa PEG linked to the C-terminal cysteine via a maleimide ring", "notes": "also called FR104-PEG; anti-CD28.3 Fab"}}, "molecular_target": "T1, human CD28 on peripheral blood CD3+ T lymphocytes (human, UniProt P10747 19-220)", "T1 construct": "whole, on cells; Target of the receptor occupancy flow cytometry assay on blood T cells of study subjects; also called CD28 receptor", "test": "Kd recalculated in the PK/target engagement model from receptor occupancy observed by flow cytometry in humans (cohort A); not a direct in vitro measurement"}
{"binder": "B1", "values": [{"measurement": "Kd", "result": "~0.3", "unit": "nM"}]}
